Measurements taken from article PMC9408373.
Where “and” joins values, the source holds several entries; their conditions need not be identical. Identical values can stand only once.

Key:
[1] = target: the CDC42 variants (2xSW and 8xSW), mGppNHp-bound; assay: fluorescence polarisation; 1 µM mant-GppNHp-bound CDC42 in the cuvette, IQGAP protein titrated; quadratic ligand binding equation
[2] = target: CDC42 IH variants (four different single residue mutations and a quadruple mutation of the insert helix); assay: fluorescence polarisation; 1 µM mant-GDP-bound CDC42 in the cuvette, IQGAP protein titrated; quadratic ligand binding equation
[3] = target: CDC42 IH variants (four different single residue mutations and a quadruple mutation of the insert helix); assay: fluorescence polarisation; 1 µM mant-GppNHp-bound CDC42 in the cuvette, IQGAP protein titrated; quadratic ligand binding equation
[4] = target: human CDC42 (aa 1-178) 8xSW (human) (UniProt P60953); assay: as above
Chain of human CDC42 (aa 1-178) 8xSW (human) (P60953 1-178): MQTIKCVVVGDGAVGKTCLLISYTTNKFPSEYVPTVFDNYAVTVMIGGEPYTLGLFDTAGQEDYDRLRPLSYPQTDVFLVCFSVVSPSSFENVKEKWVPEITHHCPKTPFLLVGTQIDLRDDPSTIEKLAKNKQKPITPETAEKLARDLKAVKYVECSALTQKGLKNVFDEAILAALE

Chain of human IQGAP1 C794 (aa 863-1657) (P46940 863-1657): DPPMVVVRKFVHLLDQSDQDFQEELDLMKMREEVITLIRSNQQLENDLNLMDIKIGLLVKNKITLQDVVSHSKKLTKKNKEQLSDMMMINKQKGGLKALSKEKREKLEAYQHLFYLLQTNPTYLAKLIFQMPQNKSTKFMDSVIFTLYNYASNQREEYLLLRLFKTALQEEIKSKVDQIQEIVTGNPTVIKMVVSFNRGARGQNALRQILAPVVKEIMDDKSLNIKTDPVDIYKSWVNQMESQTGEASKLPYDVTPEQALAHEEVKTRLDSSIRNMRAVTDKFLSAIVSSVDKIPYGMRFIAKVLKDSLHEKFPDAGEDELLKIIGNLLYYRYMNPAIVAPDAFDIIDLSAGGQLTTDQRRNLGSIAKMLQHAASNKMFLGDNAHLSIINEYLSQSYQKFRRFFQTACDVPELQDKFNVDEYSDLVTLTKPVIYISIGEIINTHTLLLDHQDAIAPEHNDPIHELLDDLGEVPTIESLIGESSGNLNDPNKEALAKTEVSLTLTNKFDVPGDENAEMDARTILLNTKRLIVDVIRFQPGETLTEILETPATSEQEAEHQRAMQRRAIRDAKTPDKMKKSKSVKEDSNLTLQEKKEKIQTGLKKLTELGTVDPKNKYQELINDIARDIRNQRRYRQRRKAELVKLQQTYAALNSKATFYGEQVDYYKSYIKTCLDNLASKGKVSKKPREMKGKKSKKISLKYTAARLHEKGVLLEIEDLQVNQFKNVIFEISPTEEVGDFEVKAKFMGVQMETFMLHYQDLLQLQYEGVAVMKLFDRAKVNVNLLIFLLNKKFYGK
Chain of human IQGAP1 GRD1 (aa 962-1345) (P46940 962-1345): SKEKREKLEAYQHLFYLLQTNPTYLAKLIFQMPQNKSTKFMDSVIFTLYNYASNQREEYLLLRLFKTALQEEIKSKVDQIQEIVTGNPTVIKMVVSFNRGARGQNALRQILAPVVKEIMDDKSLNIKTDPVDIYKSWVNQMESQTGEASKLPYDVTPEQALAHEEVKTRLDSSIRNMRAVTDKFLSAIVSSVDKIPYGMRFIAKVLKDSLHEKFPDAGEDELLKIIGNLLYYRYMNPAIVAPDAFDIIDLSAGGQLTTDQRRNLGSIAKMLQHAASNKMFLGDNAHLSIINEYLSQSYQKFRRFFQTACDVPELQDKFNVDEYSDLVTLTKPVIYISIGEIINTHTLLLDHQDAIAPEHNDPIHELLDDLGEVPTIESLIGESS

fold reduction in binding affinity against CDC42 WT [1]	fold lower affinity than for CDC42 WT [2] [fold]	fold lower affinity than for CDC42 WT [3] [fold]	fold reduction in binding affinity against CDC42 WT [4] [fold]	Substance
2 fold and 3 fold	–	–	–	human IQGAP1 GRD1 (aa 962-1345) (from UniProt P46940 962-1345) (domain or fragment)
–	3	20	86	human IQGAP1 C794 (aa 863-1657) (from UniProt P46940 863-1657) (domain or fragment)
